# Data taken from the Immune Epitope Database (IEDB).
# Tests used:
# HLA-A*02:03 [1] = test: IEDB peptide-MHC binding, purified MHC/direct/fluorescence; filed as Kd, often an IC50 or EC50 that approximates it; ≥ and ≤ were set here for values at or beyond the usual limits of such assays
# HLA-A*02:12 = test: as above
# HLA-A*02:19 = test: as above
# HLA-A*03:01 [2] = test: as above; details: source organism: Zaire ebolavirus
# HLA-A*24:03 = test: as above; details: source organism: Zaire ebolavirus
# HLA-A*68:02 = test: as above
# HLA-B*40:01 = test: as above
# HLA-A*02:01 [3] = test: IEDB peptide-MHC binding, purified MHC/competitive/fluorescence; filed as Kd, often an IC50 or EC50 that approximates it; ≥ and ≤ were set here for values at or beyond the usual limits of such assays
# HLA-A*26:01 [4] = test: as above
# HLA-A*69:01 [5] = test: as above
# HLA-B*15:01 [6] = test: as above; details: source organism: Zaire ebolavirus
# HLA-B*15:42 = test: as above; details: source organism: Zaire ebolavirus
# HLA-B*18:01 = test: as above
# HLA-B*27:03 = test: as above
# HLA-B*39:01 [7] = test: as above
# HLA-B*45:06 = test: as above; details: source organism: Zaire ebolavirus
# HLA-B*46:01 = test: as above
# HLA-B*51:01 = test: as above
# HLA-B*57:01 [8] = test: as above
# HLA-B*83:01 = test: as above; details: source organism: Zaire ebolavirus
# HLA-A*02:11 = test: IEDB peptide-MHC binding, purified MHC/direct/fluorescence; filed as Kd, often an IC50 or EC50 that approximates it; ≥ and ≤ were set here for values at or beyond the usual limits of such assays
# HLA-A*02:16 = test: as above
# HLA-B*15:01 [9] = test: as above; details: source organism: Reston ebolavirus - Reston
# HLA-A*02:03 [10] = test: IEDB peptide-MHC binding, purified MHC/competitive/fluorescence; filed as Kd, often an IC50 or EC50 that approximates it; ≥ and ≤ were set here for values at or beyond the usual limits of such assays; details: source organism: Homo sapiens
# HLA-A*01:01 = test: IEDB peptide-MHC binding, purified MHC/direct/fluorescence; filed as Kd, often an IC50 or EC50 that approximates it; ≥ and ≤ were set here for values at or beyond the usual limits of such assays; details: source organism: Vibrio vulnificus
# HLA-A*02:01 [11] = test: as above; details: source organism: Vibrio vulnificus
# HLA-A*11:01 [12] = test: as above
# HLA-A*26:01 [13] = test: as above; details: source organism: Vibrio vulnificus CMCP6
# HLA-A*31:01 = test: as above; details: source organism: Vibrio vulnificus
# HLA-A*69:01 [14] = test: as above; details: source organism: Vibrio vulnificus
# HLA-B*07:02 = test: as above; details: source organism: Vibrio vulnificus
# HLA-B*15:09 = test: as above
# HLA-B*15:17 [15] = test: as above; details: source organism: Vibrio vulnificus
# HLA-B*27:05 = test: as above; details: source organism: Vibrio vulnificus
# HLA-B*39:01 [16] = test: as above; details: source organism: Vibrio vulnificus CMCP6
# HLA-B*44:02 = test: as above; details: source organism: Vibrio vulnificus
# HLA-B*48:01 = test: as above; details: source organism: Vibrio vulnificus
# HLA-B*57:01 [17] = test: as above; details: source organism: Vibrio vulnificus
# HLA-B*58:01 = test: as above; details: source organism: Vibrio vulnificus
# HLA-A*03:01 [18] = test: IEDB peptide-MHC binding, purified MHC/competitive/fluorescence; ≥ and ≤ were set here for values at or beyond the usual limits of such assays
# HLA-A*11:01 [19] = test: as above
# HLA-B*15:01 [20] = test: as above
# HLA-A*02:01 [21] = test: as above
# HLA-A*24:02 = test: as above
# HLA-B*15:17 [22] = test: IEDB peptide-MHC binding, purified MHC/competitive/fluorescence; filed as Kd, often an IC50 or EC50 that approximates it; ≥ and ≤ were set here for values at or beyond the usual limits of such assays; details: source organism: Bacillus anthracis str. A0488
# [23] = source organism: Zaire ebolavirus
# [24] = source organism: Vibrio vulnificus
# [25] = source organism: Sudan ebolavirus
# [26] = source organism: Bacillus cereus G9842
# [27] = source organism: Bacillus anthracis str. A0488
# [28] = source organism: Vaccinia virus
sequence,measurement,setting,value
LEARVNLSV,Kd,HLA-A*02:03 [1]; [23],≥ 20 µM
same,Kd,HLA-A*02:12; [23],≥ 20 µM
same,Kd,HLA-A*02:19; [23],≥ 20 µM
same,Kd,HLA-A*03:01 [2],≥ 20 µM
same,Kd,HLA-A*24:03,≥ 20 µM
same,Kd,HLA-A*68:02; [23],≥ 20 µM
same,Kd,HLA-B*40:01; source organism: Sudan ebolavirus - Maleo (1979),2.34 µM
same,Kd,HLA-A*02:01 [3]; [23],≥ 20 µM
same,Kd,HLA-A*26:01 [4]; [23],≥ 20 µM
same,Kd,HLA-A*69:01 [5]; [23],≥ 20 µM
same,Kd,HLA-B*15:01 [6],≥ 20 µM
same,Kd,HLA-B*15:42,≥ 5 µM
same,Kd,HLA-B*18:01; [23],≥ 20 µM
same,Kd,HLA-B*27:03; [23],≥ 20 µM
same,Kd,HLA-B*39:01 [7]; [23],≥ 20 µM
same,Kd,HLA-B*45:06,≥ 5 µM
same,Kd,HLA-B*46:01; [23],≥ 20 µM
same,Kd,HLA-B*51:01; [23],≥ 20 µM
same,Kd,HLA-B*57:01 [8]; [23],≥ 20 µM
same,Kd,HLA-B*83:01,≥ 5 µM
HLPGFGTAF,Kd,HLA-A*02:03 [1]; [23],≥ 20 µM
same,Kd,HLA-A*02:11; [23],≥ 20 µM
same,Kd,HLA-A*02:12; [23],≥ 20 µM
same,Kd,HLA-A*02:16; [23],≥ 20 µM
same,Kd,HLA-A*02:19; [23],≥ 20 µM
same,Kd,HLA-A*03:01 [2],≥ 20 µM
same,Kd,HLA-A*68:02; [23],≥ 20 µM
same,Kd,HLA-B*15:01 [9],0.072 µM
same,Kd,HLA-A*02:01 [3]; [23],≥ 20 µM
same,Kd,HLA-A*69:01 [5]; [23],≥ 20 µM
same,Kd,HLA-B*18:01; [23],≥ 20 µM
same,Kd,HLA-B*27:03; [23],≥ 20 µM
same,Kd,HLA-B*39:01 [7]; [23],≥ 20 µM
same,Kd,HLA-B*57:01 [8]; [23],≥ 20 µM
YQGSYGFRL,Kd,HLA-A*02:01 [3]; source organism: Homo sapiens,0.013 µM
same,Kd,HLA-A*02:03 [10],2.14 µM
same,Kd,HLA-A*69:01 [5]; source organism: Homo sapiens,≥ 20 µM
IEFIEVVRL,Kd,HLA-A*01:01,≥ 20 µM
same,Kd,HLA-A*02:01 [11],≥ 20 µM
same,Kd,HLA-A*11:01 [12]; [24],≥ 20 µM
same,Kd,HLA-A*26:01 [13],≥ 20 µM
same,Kd,HLA-A*31:01,≥ 20 µM
same,Kd,HLA-A*68:02; [24],≥ 20 µM
same,Kd,HLA-A*69:01 [14],≥ 20 µM
same,Kd,HLA-B*07:02,≥ 20 µM
same,Kd,HLA-B*15:09; source organism: Vibrio vulnificus CMCP6,≥ 20 µM
same,Kd,HLA-B*15:17 [15],≥ 20 µM
same,Kd,HLA-B*27:05,≥ 20 µM
same,Kd,HLA-B*39:01 [16],≥ 20 µM
same,Kd,HLA-B*40:01; [24],0.0377 µM
same,Kd,HLA-B*44:02,≥ 20 µM
same,Kd,HLA-B*48:01,≥ 20 µM
same,Kd,HLA-B*57:01 [17],≥ 20 µM
same,Kd,HLA-B*58:01,≥ 20 µM
GFRSGVPPK,IC50,HLA-A*03:01 [18]; [25],3.79 µM
same,IC50,HLA-A*11:01 [19]; [25],3.21 µM
same,IC50,HLA-B*15:01 [20]; [25],≥ 92.3 µM
KINQIIHDF,IC50,HLA-A*02:01 [21]; [25],≥ 78.6 µM
same,IC50,HLA-A*24:02; [25],0.969 µM
same,IC50,HLA-B*15:01 [20]; [25],27.2 µM
MFKNFPFFK,Kd,HLA-A*02:03 [1]; [26],≥ 20 µM
same,Kd,HLA-A*02:11; [26],≥ 20 µM
same,Kd,HLA-A*02:12; [26],≥ 20 µM
same,Kd,HLA-A*02:16; [26],≥ 20 µM
same,Kd,HLA-A*02:19; [26],≥ 20 µM
same,Kd,HLA-A*11:01 [12]; [26],≤ 0.001 µM
same,Kd,HLA-A*02:01 [3]; [27],≥ 20 µM
same,Kd,HLA-A*26:01 [4]; [27],≥ 20 µM
same,Kd,HLA-B*15:17 [22],≥ 20 µM
same,Kd,HLA-B*18:01; [27],≥ 20 µM
same,Kd,HLA-B*27:03; [27],≥ 20 µM
same,Kd,HLA-B*39:01 [7]; [27],≥ 20 µM
same,Kd,HLA-B*46:01; [27],≥ 20 µM
same,Kd,HLA-B*51:01; [27],≥ 20 µM
same,Kd,HLA-B*57:01 [8]; [27],≥ 20 µM
LLFGIKCIK,IC50,HLA-A*02:01 [21]; [28],0.914 µM
same,IC50,HLA-A*03:01 [18]; [28],0.77 µM
same,IC50,HLA-A*11:01 [19]; [28],0.734 µM
same,IC50,HLA-B*15:01 [20]; [28],≥ 229 µM
GLFPQLSAI,IC50,HLA-A*02:01 [21]; [23],0.431 µM
same,IC50,HLA-A*24:02; [23],8.03 µM
same,IC50,HLA-B*15:01 [20]; [23],10.3 µM
SRAGISVVL,Kd,HLA-B*15:09; source organism: Salmonella enterica subsp. enterica serovar Typhimurium str. LT2,0.207 µM
same,Kd,HLA-B*39:01 [7]; source organism: Serratia marcescens,0.0047 µM
